Laboratory results from the nanobody polyreactivity screen of Harvey et al. (2022).

Test: yeast display, Sf9 membrane polyspecificity reagent, FACS + sequencing; frameworks hold sequencing errors
Summary of the method: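 Using colony PCR, genes from sorted yeast display clones were amplified, then sequenced on MiSeq at 2 × 250 and filtered by CDR length. The clones had been stained with 10% biotinylated, detergent-solubilized Sf9 membrane reagent for 1 hour at 4 °C and sorted by FACS into low and high (top ~1%) gates on anti-HA and streptavidin fluorescence. Polyreactivity labels come from the gate of origin.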

Sequence	polyreactivity (PSR sort gate)
QVQLVESGGGLVQAGGSLRLSCAASGSTSYTNAMGWYRQAPGKERELVARITNDGSTTYADSVKGRFTISRDNAKNTVYLQMNSLKPEDTAVYYCARPYRFWRYYGMYYWGQGTQVTVSS	high polyreactivity
QVQLVESGGGLVQAGGSLRLSCAASGRTFYSYAMGWYRQAPGKERELVASISYGGGTNYADSVKGRFTISRDNAKNTVYLQMNSLKPEDTAVYYCAAKYWFFYPYDYWGQGTQVTVSS	low polyreactivity
QVQLVESGGGLVQAGGSLRLSCASSGFTFSLYARGWYSQAPGKEMELVAAISQRGGSTYYADSVKGRFTISRDNAKNTDYLQMNSLKPEDTAVYYCNDYAQVSYGTYDYWGQGTQVTVSS	high polyreactivity
QVQLVESGRGLVQAGGSLSLSCAASGITFGNYAMGWYRQAPGKERELVAAITGSGGRTYYADSVKVRFTISRDNAKNTVYLQMNSLKPEDTAVYDCAAKQYTRFGYYYWGQGTQLTVSS	high polyreactivity
QVQLVESGGGLVQAGGSLRLSCAASGSIFAKYPMGWYRQAPGKERELVAAISSGGSTYYADSVKGRFTISRDNAKNTVYLQMNSLKPEDTAVYYCNKPYGKETRYTFNVWYEYNYWGQGTQVTVSS	low polyreactivity
QVQLVESGGRLVQAGGSLRLSWAASGRILWSNRMGWYRQAPGKERELVAAITYSGDTTYYADSVKGRFTISRDNEKNTVYLQMNSLKPDDTAVYYCAVEDAGQGGDYWGQGSQVTVSS	low polyreactivity
QVQLVESGGGLVQAGGSLRLSCAASGSIFRYNAMGWYRQAPGKERELVAAISQSGGRTSYADSVKGRFTISRDNAKNTVYLQMNSLKPEDTAVYYCAKRAYGYRSIYRMDYWGQGTQVTVSS	high polyreactivity
QVQLVESGGGLVQAGGSLRLSCAASGSIFDVYAMGWYRQAPGKERELVAAIRTRGGSTYYADSVKGRFTISRDNAKNTVYLQMNSLKPEDTAVYYCAAGGETVIPWFDDYYWGQGTQVTVSS	low polyreactivity
QVQHVESGGGLVQAGGSLRLSCAASGIIFYHNAMGWYRQAPVKERELVASITEIGGSTYYADSVKGLFTISRDNAKSTVYLQMNRLKPEDTAVYYCAAGTLTSFSRYDYWGQGTQVTVSS	low polyreactivity
QVQLVESGGGLVQAGGSLRLSCAASGRTFGINDMGWYRQAPGKERELVAVIRSGGGITFYADSVKGRFTISRDNAKNTVYLQMTSLKPEDTAVYYCAKTRRDFYDAINGGGPERYDYWGQGTQVTVSS	low polyreactivity
QVQLVESGGGLVQAGGSLRLSCAASGYTFDQYAMGWYRQAPGKERELVAGIDSAGSTYYADSVKGRFTISRDNAKITVYLQMNSLKPEDTAVYYCNADDLNTEVPYYYWGQGTQVTGSS	low polyreactivity
QVQLVESGGGLVQAGGSLRLSCAASGRIFRGYTMGWYRQAPGKEREFVAAITANGGRTYYADSVKGRFTISRDTAKNTVYLKMNRLKPEDTAVYYCNARTYTYRGSFDYWVQGTQVTVSS	high polyreactivity
QVQLVESGGGLVQAGGSLRLSCAPSGRIFTRYAMGWYRQAPGKERELVAASSSSGGSTYYADSVKGRFTISRDNAKNTVYLQMTSLKPEDTAVYYCNRGGWYAYYWGQGTQVTVSS	high polyreactivity
QVHLVESGGGLVQAGGSLRLICAASGSIFRWNAMGWYRQAPGKEREFVATISSGRNTKYADSVKGRFTISRDNAKNTVYLQMTSLKPQDTAVNDCAAAVKRALDYWGQGTQVTVSS	high polyreactivity
QDHLVESGGGLVQAGGSLRLSCAASGSIFRRNAMGWYRQAPGKERELVAAIRYSGDRTYYADSVKGRFTISRDNAKNTVYLQMNSLKPEDTAVYYCAAKRSVSYYGYYYWGQGSQVTVSS	high polyreactivity
QVHLVESGGGLVQAGGSLRLSCAASGSTFYRYAMGWYRQAPGKERELVAAITRSGGSTYYADSVKGRFTISRDNAKNTVYLLMNSLKPEDTAVYYCAADRYYVYTFYYWGQGTQVTVSS	high polyreactivity
QVQLEESGGGLDQAGGSLRLICAASGSIFPSYAMGWYRQAPGKERELVATIGRGGTTNYSDSVKGRFTISRDNAKITVYLLMNSLKPEDTAVYYCNADRIWRYKYGYDYWRQGTQVTVSS	high polyreactivity
QVQLVESGGGLVQAGGSLRLSCAASGRTFGGNAMGWYRQAPGKEWELVAAIDQSGGSTYYADSVKGRFTISRDNAKNTVYLQMISLKPEDTAVYYCARKTYSYFGHYYFWGQGTQVTVSS	low polyreactivity
QVQLAESGGGLVQAGGSLRLSCAASGIIFVYNAMGWYIKAPGKERELVAVISFIGDSTYYADSVKGRFTISRDNAKNTVYLQMNSLKPEDTAVYYCAADYYMPYWFFVGYDYWGQGTQVTVSS	low polyreactivity
QVQLVESGGGLVQAGGSLRLSCAASGRTFVLYTMGWYRQAPGKERELLAVGSTYYADSVKGRFTISRDNAKNTVYLQMNSLKPEDTAVYYCAVDLYWSYFNGALGYRYYYWGQGTQVTVSS	high polyreactivity
QVQLVESGGGLVQEGGSLRLSCAASGSIFIANAMGWYRQAPGKERELVARITRGGRTNYADSVKGRFTISRDNAKNTVYLQMNSLKPEDTAVYYCAAVYYVGFPHKYDYWGQGTQVTVSS	low polyreactivity
QVQLVESGGGLVQAGGSLRLSCAASGLTFVFYAMGWYRQAPGKETELVAAISSSGGSTNYADSVKGRFTISRDNEKNTVYLQMKSLKPEDTAVYYCAATPYYSQYDYWGQGTQVTVSS	high polyreactivity

Sequence	polyreactivity (PSR sort gate)
QVQLVESGGGLVQAGGSLRLSCAASGRTFTYNTMGWYRQAPGKERELVAAISSSGGSTYYADSVKGRFTISRDNAKNTVYLQMNSLKPEDTAVYYCAKRYFSSSRYYYWGQGTQVTVSS	high polyreactivity
QVPLVESGGGLVQAGGSLRISCAASGSTFWYYAMGWYRQAPGKEREMVATITSTGTTNYADSVKGRFTISRDTAKNTVYLQMNSLKPEDTAVYYCNARSWSYSYPYLTYYYIAGYWGQGTQVTVSS	low polyreactivity
QVQLVKSGGGLVQAGGSLRLSCAASGRIFVGYVMGWYRQAPGKERELVAAIDSGGRTNYADSVKGRFTISRDNAKNTVYLQMNSLKPEDTAVYYCNREAAHGSLRWTEMEYWGQGTQVTVSS	low polyreactivity
QVQLQESGGGLVQAGGSLRLICAASGTIFRFRYMGWHRQAPGKERELVAGINGGTTTYYADSVIGRFTISRDNAKNTVYVQMNSLKPDDTAVYNCAAGASRLTYYDYWGHGTQVTVSS	low polyreactivity
QVQLQESGGGLVQAGGSLRLSCAASGSIFTQATMGWYRQAPGKERELVAAINFGSSTYYADSVKGRFTISRDNAKSTVYLQMNSLKPEDTAVYYCAVRALWYDFHDYWGQGTQVTVSS	high polyreactivity
QVQLVESGGDLVQAGGSLRLSCAASGRTFSANGMGWYRQAPGKERELVAAITRSGGITYYADSVKGRFTISRDNAKNTVYLQMNSLKPEDTAVYYCAASVYSLSRRSWMDYWGQGTQVTVSS	low polyreactivity
QVQLVESGGGLVQAGGSLRLSCAASGFIFRNYVMGWKRPAPGKERELVADITFSGGGTYYADSVKGRFTISRDNAKNTVYLLMNSLIPEDTAVYYCAVYWNWQYDYCGQGTQVTVSS	high polyreactivity
QVQLVETGRGLLQAGGTLLLTCAASGSIYTYAMGWYKQAHGTQRELVAAISRSGGRTYYADSVKGRFTNSRDNAKNTVYLQMNSLKPEDTAVYYCAALLLKDYDYLGQGTQVTVSS	low polyreactivity
QVQLEESGGGLVQAGGSLRLSCAASGRIFAGYAMGWYRQEPGKERELVAAINGSGADTYYADSVKGRFTISRDNAKNTVYLQMNSLKPEDTAVYYCAASPGSQYTGYDYWGQGTQVTVSS	low polyreactivity
QVQLVESGGGLVQAGGSLRLSCATSGRTLGGYAMGWYRHAPGKERELVASITSTSSTYADSVKGRFTISRDNAKNTVYLQMNSLKPEDTAVYYCAADPRRYRGFGYVYGGFYYWGQGTQVTVSS	low polyreactivity
QVQLVESGGGLVQAGGSLRLSCDASGLTIYGYAIGSYRQAPGKERELVAAITSGDSTYYADSVKGRFTISRDTAKNTVYFQMNSLKPDDTAVYYCAAVGGYPRYGYWGQGTQVTVSS	high polyreactivity
QVQLVESGGGLVQAGGSLRLSCASSGSNFGRYAMGWYRQAPGKEREFVAAISRSSDNTSYADSVKGRFTISRDIAKNTVYLQMNRLNPEDRAVYYCNADRPFSLGQRKYVDFDEPYNYWGQGTQVTVSS	low polyreactivity
QFQLEESGGGIVQAGGSLRLSCAASGSTFYYNAMGWYRQAPGKERDLVAAITGSGTGTNYADSVKGRFTISRDNAKITVYLQMNSLKTEDTAVYYCAADYVWRGDPINSYLSWYVYWGQGTQVTVSS	low polyreactivity
QVQLVESGGGLVQAGGSLRLSCAASGSIFGRYVMGWYRQAPGKEREFVAAITYSGSSTYYADSVKGRFTISRDNAKNTVYLQMNSLKPEDTAVYYCNTYPRSFYWMGYWGQGTQVTVSS	high polyreactivity
QVQLVESGGGLVQAGGSLRLICAASGSTYDRNVLGWYRQEPGKERELVAAISRVSSTNYADSVKGRFTISRDNAKNTVYLQMNSLKPEDTAVYYCAADRAGSIMNYWGQGTQVTVSS	low polyreactivity
QVQLVESGGGLVQAGGSLRLSCAASGSTFYYYAMGWYRQAPGKERELVARITWIGGSTYYADSVKGRFTISRDNAKNTVYLQMNSLKPEDTAVYYCAAGWYRRIYGGWGYDYWGQGTQVTVSS	low polyreactivity
QVQLVESGGGIVHAGGSLRLSCAASGIIFLFYAMGWYRQARVKERELVASITWSGGSTYYADSVKGRFTISRDNAKNNVFLQMLSLKPEDTSVYYCAASVNIISYLVHSEFLGGELDYWGQGTQVTVSS	low polyreactivity
QVQLVESGGGLVQAGGSLRLSCAASGFIFYRYTMGWYRQAPGKERELVAGISSRGTRTYYADSVKGRFTISRDNAKNTVYLQMNSLKPEDTAVYYCAAVLTQPKKVNYWGQGTQVTVSS	high polyreactivity
QVQLVESGAGLVQAGGSLRLSCAASGRNFQYYAMVWYRQAPGKERELVAAISSGGGTYYADSVKGRFTISRDNAKNTVYLQMNSLKPEDTAVYYCAARYVYHRGFDYWGQGTQVTVSS	high polyreactivity
QVQLQESGGRLEQAGGSLRPSCAASGSISDGVPMRWNRQAPGEERELVATTVLGATTNYADSVKGRFTISRGNAKHTVYLQMNSLKPEETAVYYCAARLRYDKGFSYWGQGTQVTVSS	low polyreactivity
QVQLVESGGGLVQAGGSLRLSCAASGIIFYGYAMGWYRQAPGKERELVAAISRSGGSTYYADSVKGRFTISRDNAKNTVYLQMNSLKPEDTAVYYCAASGVTYDYWGQGTQVTVSS	high polyreactivity
